Target: FcγRIIIa (Human) (UniProt P08637)
Experiment: SPR

Sequence of FcγRIIIa (Human) (P08637 17-208 F176V): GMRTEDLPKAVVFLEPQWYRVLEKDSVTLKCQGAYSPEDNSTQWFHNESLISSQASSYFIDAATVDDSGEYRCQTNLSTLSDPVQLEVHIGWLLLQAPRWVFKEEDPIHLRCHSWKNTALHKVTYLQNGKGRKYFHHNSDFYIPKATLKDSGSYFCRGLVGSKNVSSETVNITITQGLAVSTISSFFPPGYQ

- Kd: 156 nM
Substance: Mogamulizumab
